Data from the supplement of paper PMC10065799, “High-throughput profiling of sequence recognition by tyrosine kinases and SH2 domains using bacterial peptide display” (eLife, 2023).

biological target: c-Src SH2; assay: SH2 binding enrichment of the phosphorylated peptide, bacterial display (enrichment ratio); higher = better substrate or ligand; peptides without Tyr show the background
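Wherever SH2 binding enrichment of the phosphorylated peptide, bacterial display is given: peptide library displayed on the E. coli surface as eCPX fusions, selected cells deep-sequenced, score is each peptide's frequency after selection divided by its frequency in the input.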
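Wherever phosphorylation enrichment, bacterial display is given: 11-residue human phosphosite peptides and single-mutation variants displayed on the E. coli surface, counted by deep sequencing, each peptide's frequency after selection divided by its frequency in the unselected input library; frequency after pTyr selection over input frequency; kinase dosed for 20-30% of maximal phosphorylation in three min.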

Row | Sequence | SH2 binding enrichment
1 | VTDGKYAFKPK [GTF2E2_Y137_I133T] | 0.452
2 | EPSVPYRGTVF [GLI3_Y104] | 0.491
3 | KKRRSYGNSSD [SELENOK_Y52] | 0.376
4 | EQKKYSNAMKK [SCN5A_Y1495_Y1495S] | 0.646
5 | GPSTPYTKSKC [SMARCC2_Y324_R329C] | 0.76
6 | GGGGSYNDFGN [HNRNPA1_Y312] | 0.513
7 | SGSFRYGSSFE [SELE_Y390_C394F] | 0.564
8 | ADRSCYDLSCH [GARS1_Y467] | 0.985
9 | GASWRYGSGVS [NEU1_Y242] | 0.461
10 | QFPDVYAREEV [CRX_Y67_YF] | 0.658
11 | TLLSAYQIPRT [GAB2_Y324_P320L] | 0.786
12 | RAMPVYEKAEH [TP63_Y231_K232E] | 2.1
13 | DWLRRYLENGK [HLA-A_Y195_E190D] | 0.211
14 | PMFTKYGNSLL [RPGRIP1L_Y196] | 0.749
15 | MVTSGYKAKTI [EFR3A_Y447] | 0.44
16 | FFRDGCMPRQF [GSS_Y270_Y270C_YF] | 0.506

biological target: SHP2-C SH2; assay: as above

Row | Sequence | SH2 binding enrichment
17 | VTDGKYAFKPK [GTF2E2_Y137_I133T] | 0.847
18 | EPSVPYRGTVF [GLI3_Y104] | 0.711
19 | KKRRSYGNSSD [SELENOK_Y52] | 0.525
20 | EQKKYSNAMKK [SCN5A_Y1495_Y1495S] | 0.627
21 | GPSTPYTKSKC [SMARCC2_Y324_R329C] | 1.06
22 | GGGGSYNDFGN [HNRNPA1_Y312] | 0.659
23 | SGSFRYGSSFE [SELE_Y390_C394F] | 0.52
24 | ADRSCYDLSCH [GARS1_Y467] | 0.968
25 | GASWRYGSGVS [NEU1_Y242] | 0.721
26 | QFPDVYAREEV [CRX_Y67_YF] | 0.776
27 | TLLSAYQIPRT [GAB2_Y324_P320L] | 0.73
28 | RAMPVYEKAEH [TP63_Y231_K232E] | 0.574
29 | DWLRRYLENGK [HLA-A_Y195_E190D] | 0.366
30 | PMFTKYGNSLL [RPGRIP1L_Y196] | 0.679
31 | MVTSGYKAKTI [EFR3A_Y447] | 0.744
32 | FFRDGCMPRQF [GSS_Y270_Y270C_YF] | 0.496

biological target: Grb2 SH2 (UniProt P62993); assay: as above
Sequence (P62993 whole entry, looked up): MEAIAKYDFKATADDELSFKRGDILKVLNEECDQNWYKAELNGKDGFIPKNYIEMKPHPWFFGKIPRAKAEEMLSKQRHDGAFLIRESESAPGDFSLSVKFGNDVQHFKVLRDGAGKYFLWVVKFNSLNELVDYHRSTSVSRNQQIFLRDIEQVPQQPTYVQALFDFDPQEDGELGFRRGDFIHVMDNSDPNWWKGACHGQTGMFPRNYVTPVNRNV

Row | Sequence | SH2 binding enrichment
33 | VTDGKYAFKPK [GTF2E2_Y137_I133T] | 0.783
34 | EPSVPYRGTVF [GLI3_Y104] | 0.803
35 | KKRRSYGNSSD [SELENOK_Y52] | 0.601
36 | EQKKYSNAMKK [SCN5A_Y1495_Y1495S] | 0.868
37 | GPSTPYTKSKC [SMARCC2_Y324_R329C] | 1.24
38 | GGGGSYNDFGN [HNRNPA1_Y312] | 0.745
39 | SGSFRYGSSFE [SELE_Y390_C394F] | 0.627
40 | ADRSCYDLSCH [GARS1_Y467] | 0.79
41 | GASWRYGSGVS [NEU1_Y242] | 0.728
42 | QFPDVYAREEV [CRX_Y67_YF] | 0.854
43 | TLLSAYQIPRT [GAB2_Y324_P320L] | 0.91
44 | RAMPVYEKAEH [TP63_Y231_K232E] | 1.07
45 | DWLRRYLENGK [HLA-A_Y195_E190D] | 0.654
46 | PMFTKYGNSLL [RPGRIP1L_Y196] | 0.952
47 | MVTSGYKAKTI [EFR3A_Y447] | 0.748
48 | FFRDGCMPRQF [GSS_Y270_Y270C_YF] | 0.849

biological target: EPHB2 (UniProt P29323); assay: phosphorylation enrichment, bacterial display (enrichment ratio); higher = better substrate or ligand; peptides without Tyr show the background
Sequence (P29323 whole entry, looked up): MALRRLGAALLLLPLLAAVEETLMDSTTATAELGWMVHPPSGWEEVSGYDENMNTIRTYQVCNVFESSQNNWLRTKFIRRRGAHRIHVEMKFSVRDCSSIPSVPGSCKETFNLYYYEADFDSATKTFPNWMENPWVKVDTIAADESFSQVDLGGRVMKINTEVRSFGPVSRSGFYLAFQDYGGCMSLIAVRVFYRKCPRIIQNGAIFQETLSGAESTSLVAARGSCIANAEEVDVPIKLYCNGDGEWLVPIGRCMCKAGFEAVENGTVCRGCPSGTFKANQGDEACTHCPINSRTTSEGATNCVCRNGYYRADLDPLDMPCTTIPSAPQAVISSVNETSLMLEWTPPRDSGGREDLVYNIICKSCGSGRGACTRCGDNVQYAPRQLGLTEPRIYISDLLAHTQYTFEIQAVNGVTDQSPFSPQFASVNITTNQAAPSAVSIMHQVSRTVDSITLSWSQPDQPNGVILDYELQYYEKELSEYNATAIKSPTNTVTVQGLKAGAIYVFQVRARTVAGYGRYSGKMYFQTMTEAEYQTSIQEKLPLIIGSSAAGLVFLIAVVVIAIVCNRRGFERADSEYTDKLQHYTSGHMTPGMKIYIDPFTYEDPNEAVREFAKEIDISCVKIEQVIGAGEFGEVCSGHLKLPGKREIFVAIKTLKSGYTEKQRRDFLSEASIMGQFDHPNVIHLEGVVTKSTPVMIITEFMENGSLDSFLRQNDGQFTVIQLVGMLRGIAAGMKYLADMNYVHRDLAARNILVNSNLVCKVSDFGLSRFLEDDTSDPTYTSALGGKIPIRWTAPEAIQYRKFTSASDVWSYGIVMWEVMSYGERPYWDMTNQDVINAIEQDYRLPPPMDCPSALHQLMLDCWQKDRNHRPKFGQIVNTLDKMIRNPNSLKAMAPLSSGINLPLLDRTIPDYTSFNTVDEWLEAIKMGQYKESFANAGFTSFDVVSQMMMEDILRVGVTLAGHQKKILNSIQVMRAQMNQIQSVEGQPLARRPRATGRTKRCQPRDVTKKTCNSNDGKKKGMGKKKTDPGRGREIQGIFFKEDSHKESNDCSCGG

Row | Sequence | phosphorylation enrichment
49 | VTDGKYAFKPK [GTF2E2_Y137_I133T] | 0.262
50 | EPSVPYRGTVF [GLI3_Y104] | 0.567
51 | KKRRSYGNSSD [SELENOK_Y52] | 0.394
52 | EQKKYSNAMKK [SCN5A_Y1495_Y1495S] | 0.333
53 | GPSTPYTKSKC [SMARCC2_Y324_R329C] | 0.408
54 | GGGGSYNDFGN [HNRNPA1_Y312] | 0.39
55 | SGSFRYGSSFE [SELE_Y390_C394F] | 0.438
56 | ADRSCYDLSCH [GARS1_Y467] | 0.528
57 | GASWRYGSGVS [NEU1_Y242] | 0.432
58 | QFPDVYAREEV [CRX_Y67_YF] | 0.489
59 | TLLSAYQIPRT [GAB2_Y324_P320L] | 0.42
60 | RAMPVYEKAEH [TP63_Y231_K232E] | 0.834
61 | DWLRRYLENGK [HLA-A_Y195_E190D] | 0.946
62 | PMFTKYGNSLL [RPGRIP1L_Y196] | 0.643
63 | MVTSGYKAKTI [EFR3A_Y447] | 0.312
64 | FFRDGCMPRQF [GSS_Y270_Y270C_YF] | 0.518

biological target: Jak2 (UniProt O60674); assay: as above
Sequence (O60674 whole entry, looked up): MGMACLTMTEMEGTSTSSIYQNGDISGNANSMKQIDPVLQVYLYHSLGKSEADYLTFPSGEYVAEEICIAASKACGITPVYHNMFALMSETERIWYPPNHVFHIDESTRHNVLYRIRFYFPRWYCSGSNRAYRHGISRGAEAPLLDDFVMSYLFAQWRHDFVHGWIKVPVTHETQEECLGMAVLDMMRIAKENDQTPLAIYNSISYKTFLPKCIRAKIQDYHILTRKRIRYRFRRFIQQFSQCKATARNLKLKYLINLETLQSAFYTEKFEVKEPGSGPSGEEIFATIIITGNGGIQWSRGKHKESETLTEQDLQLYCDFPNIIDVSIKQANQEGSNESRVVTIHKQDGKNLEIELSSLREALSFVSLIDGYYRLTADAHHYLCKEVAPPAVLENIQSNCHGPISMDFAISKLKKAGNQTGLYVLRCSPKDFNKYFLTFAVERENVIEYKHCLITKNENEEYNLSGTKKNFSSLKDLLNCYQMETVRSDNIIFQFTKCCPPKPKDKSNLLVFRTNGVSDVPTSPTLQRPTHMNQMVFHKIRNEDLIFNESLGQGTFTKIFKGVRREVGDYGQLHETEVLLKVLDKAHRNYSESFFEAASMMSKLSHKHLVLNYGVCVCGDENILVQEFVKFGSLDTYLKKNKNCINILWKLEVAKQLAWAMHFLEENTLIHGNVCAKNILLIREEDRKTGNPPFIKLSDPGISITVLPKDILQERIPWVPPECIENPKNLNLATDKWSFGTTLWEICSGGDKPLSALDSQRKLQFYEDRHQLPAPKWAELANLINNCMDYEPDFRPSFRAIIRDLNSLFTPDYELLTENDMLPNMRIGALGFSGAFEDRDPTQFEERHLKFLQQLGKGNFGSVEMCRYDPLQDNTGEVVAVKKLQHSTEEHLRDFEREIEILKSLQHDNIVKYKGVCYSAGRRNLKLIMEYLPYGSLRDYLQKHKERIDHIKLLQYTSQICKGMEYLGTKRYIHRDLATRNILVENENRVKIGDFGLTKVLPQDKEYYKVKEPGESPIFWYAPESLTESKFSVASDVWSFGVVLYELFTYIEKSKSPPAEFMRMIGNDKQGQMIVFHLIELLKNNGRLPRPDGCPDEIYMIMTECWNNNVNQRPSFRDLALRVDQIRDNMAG

Row | Sequence | phosphorylation enrichment
65 | VTDGKYAFKPK [GTF2E2_Y137_I133T] | 0.521
66 | EPSVPYRGTVF [GLI3_Y104] | 0.783
67 | KKRRSYGNSSD [SELENOK_Y52] | 0.475
68 | EQKKYSNAMKK [SCN5A_Y1495_Y1495S] | 0.437
69 | GPSTPYTKSKC [SMARCC2_Y324_R329C] | 0.573
70 | GGGGSYNDFGN [HNRNPA1_Y312] | 0.579
71 | SGSFRYGSSFE [SELE_Y390_C394F] | 0.629
72 | ADRSCYDLSCH [GARS1_Y467] | 0.798
73 | GASWRYGSGVS [NEU1_Y242] | 0.566
74 | QFPDVYAREEV [CRX_Y67_YF] | 1.53
75 | TLLSAYQIPRT [GAB2_Y324_P320L] | 0.68
76 | RAMPVYEKAEH [TP63_Y231_K232E] | 1.03
77 | DWLRRYLENGK [HLA-A_Y195_E190D] | 0.986
78 | PMFTKYGNSLL [RPGRIP1L_Y196] | 1.44
79 | MVTSGYKAKTI [EFR3A_Y447] | 0.364
80 | FFRDGCMPRQF [GSS_Y270_Y270C_YF] | 0.949

biological target: MERTK (UniProt Q12866); assay: as above
Sequence (Q12866 whole entry, looked up): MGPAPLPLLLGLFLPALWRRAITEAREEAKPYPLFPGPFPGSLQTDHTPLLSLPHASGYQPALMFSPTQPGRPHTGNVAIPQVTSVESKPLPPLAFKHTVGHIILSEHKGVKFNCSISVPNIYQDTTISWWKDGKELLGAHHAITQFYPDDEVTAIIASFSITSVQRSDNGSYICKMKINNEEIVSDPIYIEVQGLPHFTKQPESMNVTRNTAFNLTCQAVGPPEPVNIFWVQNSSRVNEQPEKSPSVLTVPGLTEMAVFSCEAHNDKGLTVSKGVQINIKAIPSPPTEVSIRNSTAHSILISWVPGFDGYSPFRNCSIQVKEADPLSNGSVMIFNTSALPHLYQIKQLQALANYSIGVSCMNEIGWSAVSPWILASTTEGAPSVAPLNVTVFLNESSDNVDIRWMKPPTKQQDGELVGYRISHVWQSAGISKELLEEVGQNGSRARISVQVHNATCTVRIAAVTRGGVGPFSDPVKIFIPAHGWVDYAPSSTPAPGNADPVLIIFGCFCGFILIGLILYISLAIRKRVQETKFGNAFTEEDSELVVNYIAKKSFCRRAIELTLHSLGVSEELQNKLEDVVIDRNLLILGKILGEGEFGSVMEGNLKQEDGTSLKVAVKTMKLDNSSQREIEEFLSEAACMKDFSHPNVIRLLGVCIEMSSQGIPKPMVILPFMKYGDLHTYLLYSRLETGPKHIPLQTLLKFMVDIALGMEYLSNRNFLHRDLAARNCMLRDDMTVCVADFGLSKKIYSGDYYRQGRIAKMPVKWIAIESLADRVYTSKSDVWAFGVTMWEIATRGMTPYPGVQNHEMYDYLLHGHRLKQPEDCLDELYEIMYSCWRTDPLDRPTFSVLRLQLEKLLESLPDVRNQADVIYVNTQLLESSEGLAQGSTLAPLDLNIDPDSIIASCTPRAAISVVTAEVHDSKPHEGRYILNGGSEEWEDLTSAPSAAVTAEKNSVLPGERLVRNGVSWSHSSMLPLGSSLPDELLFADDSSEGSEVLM

Row | Sequence | phosphorylation enrichment
81 | VTDGKYAFKPK [GTF2E2_Y137_I133T] | 0.361
82 | EPSVPYRGTVF [GLI3_Y104] | 0.487
83 | KKRRSYGNSSD [SELENOK_Y52] | 0.51
84 | EQKKYSNAMKK [SCN5A_Y1495_Y1495S] | 0.29
85 | GPSTPYTKSKC [SMARCC2_Y324_R329C] | 0.396
86 | GGGGSYNDFGN [HNRNPA1_Y312] | 0.422
87 | SGSFRYGSSFE [SELE_Y390_C394F] | 0.426
88 | ADRSCYDLSCH [GARS1_Y467] | 0.457
89 | GASWRYGSGVS [NEU1_Y242] | 0.413
90 | QFPDVYAREEV [CRX_Y67_YF] | 0.603
91 | TLLSAYQIPRT [GAB2_Y324_P320L] | 1.18
92 | RAMPVYEKAEH [TP63_Y231_K232E] | 0.453
93 | DWLRRYLENGK [HLA-A_Y195_E190D] | 0.864
94 | PMFTKYGNSLL [RPGRIP1L_Y196] | 0.708
95 | MVTSGYKAKTI [EFR3A_Y447] | 0.377
96 | FFRDGCMPRQF [GSS_Y270_Y270C_YF] | 0.386

biological target: FGFR1 (UniProt P11362); assay: as above
Sequence (P11362 whole entry, looked up): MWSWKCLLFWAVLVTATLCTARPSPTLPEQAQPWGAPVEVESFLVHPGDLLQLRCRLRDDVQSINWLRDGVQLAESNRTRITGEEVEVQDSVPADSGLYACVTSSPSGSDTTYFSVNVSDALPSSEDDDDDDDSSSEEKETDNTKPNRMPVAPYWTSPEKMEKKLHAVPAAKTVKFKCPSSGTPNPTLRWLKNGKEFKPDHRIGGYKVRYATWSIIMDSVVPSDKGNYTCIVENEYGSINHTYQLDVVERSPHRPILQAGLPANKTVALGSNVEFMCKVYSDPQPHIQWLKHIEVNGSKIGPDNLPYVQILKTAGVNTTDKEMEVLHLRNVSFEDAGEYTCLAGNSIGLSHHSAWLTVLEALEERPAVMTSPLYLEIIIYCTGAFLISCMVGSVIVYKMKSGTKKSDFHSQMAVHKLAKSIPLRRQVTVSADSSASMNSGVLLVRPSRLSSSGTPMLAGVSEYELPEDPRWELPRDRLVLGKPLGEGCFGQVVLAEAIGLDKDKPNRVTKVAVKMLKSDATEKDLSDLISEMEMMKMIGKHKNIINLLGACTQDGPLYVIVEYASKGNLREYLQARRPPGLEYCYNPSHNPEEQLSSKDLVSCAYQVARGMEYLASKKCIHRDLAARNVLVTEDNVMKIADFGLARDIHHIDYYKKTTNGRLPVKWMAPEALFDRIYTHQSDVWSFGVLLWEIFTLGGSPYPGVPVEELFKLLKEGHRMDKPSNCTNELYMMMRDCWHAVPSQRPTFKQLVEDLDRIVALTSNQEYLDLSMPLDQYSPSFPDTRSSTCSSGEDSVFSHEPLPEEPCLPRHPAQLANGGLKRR

Row | Sequence | phosphorylation enrichment
97 | VTDGKYAFKPK [GTF2E2_Y137_I133T] | 0.411
98 | EPSVPYRGTVF [GLI3_Y104] | 0.447
99 | KKRRSYGNSSD [SELENOK_Y52] | 0.383
100 | EQKKYSNAMKK [SCN5A_Y1495_Y1495S] | 0.304
101 | GPSTPYTKSKC [SMARCC2_Y324_R329C] | 0.362
102 | GGGGSYNDFGN [HNRNPA1_Y312] | 0.471
103 | SGSFRYGSSFE [SELE_Y390_C394F] | 0.419
104 | ADRSCYDLSCH [GARS1_Y467] | 0.433
105 | GASWRYGSGVS [NEU1_Y242] | 0.531
106 | QFPDVYAREEV [CRX_Y67_YF] | 0.649
107 | TLLSAYQIPRT [GAB2_Y324_P320L] | 0.418
108 | RAMPVYEKAEH [TP63_Y231_K232E] | 0.493
109 | DWLRRYLENGK [HLA-A_Y195_E190D] | 0.728
110 | PMFTKYGNSLL [RPGRIP1L_Y196] | 0.645
111 | MVTSGYKAKTI [EFR3A_Y447] | 0.299
112 | FFRDGCMPRQF [GSS_Y270_Y270C_YF] | 0.416

biological target: Fyn (UniProt P06241); assay: as above
Sequence (P06241 whole entry, looked up): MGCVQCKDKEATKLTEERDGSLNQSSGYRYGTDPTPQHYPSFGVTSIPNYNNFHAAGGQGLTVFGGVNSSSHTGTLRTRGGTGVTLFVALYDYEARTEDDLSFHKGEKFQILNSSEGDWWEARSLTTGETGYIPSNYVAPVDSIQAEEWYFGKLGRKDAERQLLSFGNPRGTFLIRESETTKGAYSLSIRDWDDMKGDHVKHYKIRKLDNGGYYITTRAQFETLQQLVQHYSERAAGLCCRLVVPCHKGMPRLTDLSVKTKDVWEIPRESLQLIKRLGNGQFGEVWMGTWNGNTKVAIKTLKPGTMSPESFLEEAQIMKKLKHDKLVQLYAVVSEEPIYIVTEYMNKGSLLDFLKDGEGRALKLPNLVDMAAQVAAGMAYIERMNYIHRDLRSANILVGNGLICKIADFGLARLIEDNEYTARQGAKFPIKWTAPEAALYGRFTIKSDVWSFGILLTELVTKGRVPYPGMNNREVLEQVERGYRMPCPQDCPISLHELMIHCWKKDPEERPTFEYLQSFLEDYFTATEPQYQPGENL

Row | Sequence | phosphorylation enrichment
113 | VTDGKYAFKPK [GTF2E2_Y137_I133T] | 0.355
114 | EPSVPYRGTVF [GLI3_Y104] | 0.545
115 | KKRRSYGNSSD [SELENOK_Y52] | 0.448
116 | EQKKYSNAMKK [SCN5A_Y1495_Y1495S] | 0.322
117 | GPSTPYTKSKC [SMARCC2_Y324_R329C] | 0.403
118 | GGGGSYNDFGN [HNRNPA1_Y312] | 1.17
119 | SGSFRYGSSFE [SELE_Y390_C394F] | 0.526
120 | ADRSCYDLSCH [GARS1_Y467] | 0.604
121 | GASWRYGSGVS [NEU1_Y242] | 0.479
122 | QFPDVYAREEV [CRX_Y67_YF] | 0.624
123 | TLLSAYQIPRT [GAB2_Y324_P320L] | 0.387
124 | RAMPVYEKAEH [TP63_Y231_K232E] | 0.867
125 | DWLRRYLENGK [HLA-A_Y195_E190D] | 0.642
126 | PMFTKYGNSLL [RPGRIP1L_Y196] | 0.558
127 | MVTSGYKAKTI [EFR3A_Y447] | 0.361
128 | FFRDGCMPRQF [GSS_Y270_Y270C_YF] | 0.464
